Key:
[1] = molecular target: T1, DGI-2 polypeptide (UniProt Q15004 1-111, limits assumed); assay: phage ELISA, 405 nm; DGI-2 signal over LDH signal
T1 construct: Vector-derived residues or tag of pIVEX2.3 are not described for this construct; also called KIAA0101
T1 sequence (looked up): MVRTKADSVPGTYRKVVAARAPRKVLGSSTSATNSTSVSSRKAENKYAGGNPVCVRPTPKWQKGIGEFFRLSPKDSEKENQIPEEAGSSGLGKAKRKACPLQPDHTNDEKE
Method: (§1) For analysis of individual target binders, colonies were picked and phage prepared as described above using helper phage, M13KO7. Ninety-six-well microtiter plates were coated with 500 ng/well of specific target protein, 500 ng/well lactate dehydrogenase (LDH) irrelevant or non-specific target, 500 ng/well of positive control antibody raised against ETAG, and negative control of non-fat milk powder-PBS 2% at 4° C. overnight. Plates were then blocked with 350 microliters/well PBS containing 2% non-fat milk for 1 hr at room temperature. One hundred microliters per well of phage from isolated clones were added and plates were incubated at room temperature for 2 hr after centrifuging samples for 20 minutes at 3500 rpm at 4° C. The phage solution was then removed, and the wells were washed three times with PBS at room temperature. Antibody raised against M13 conjugated to horseradish peroxidase (Pharmacia) was diluted 1:3000 in PBS-Tween and added to each well (100 µl/well). Incubation was for 1 hr at room temperature, followed by washing with PBS-(0.5%) Tween 3 times as described. Color was developed by addition of ABTS solution (100 µl/well; Boehringer, Indianapolis, Ind.). Plates were analyzed at 405 nm. A clone was considered "positive" if the $A405$ of the well was $\geq$2-fold over background.

[2] = molecular target: T1, DGI-2 polypeptide; assay: phage ELISA, 405 nm; DGI-2 coated
Method: as §1

[3] = molecular target: T2, antibody raised against ETAG; assay: phage ELISA, 405 nm; anti-E-tag antibody coated
T2 construct: read-out of display; also called E-tag antibody; E tag antibody
Method: as §1

[4] = molecular target: T3, DGI-2 polypeptide (UniProt Q15004 1-111, limits assumed); assay: phage ELISA
T3 construct: Soluble recombinant protein coated at 500 ng/well; vector tag of pIVEX2.3-MCS not described for this construct; also called KIAA0101
T3 sequence (looked up): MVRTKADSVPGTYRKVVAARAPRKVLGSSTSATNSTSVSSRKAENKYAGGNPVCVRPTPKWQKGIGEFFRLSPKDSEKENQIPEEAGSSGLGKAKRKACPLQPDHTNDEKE
In short: (§2)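 Phage from individual clones were bound for 2 h at RT to wells coated with 500 ng DGI-2, LDH (non-specific), anti-E-tag antibody (positive control) or milk (negative control). Bound phage were detected with HRP-anti-M13 and ABTS at A405; positive clones gave ≥2-fold signal over background.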

[5] = molecular target: T4, lactate dehydrogenase (LDH); assay: phage ELISA
T4 construct: Coated at 500 ng/well as non-specific target; also called LDH polypeptide
In short: as §2

[6] = molecular target: T5, antibody raised against ETAG; assay: phage ELISA
T5 construct: Coated at 500 ng/well; also called E-tag antibody
In short: as §2

Row | Binder | DGI-2/LDH (OD) [1] [ratio] | DGI-2 (OD) [2] [OD] | ETAG (OD) [3] [OD] | DGI-2 (OD) [4] [OD] | DGI-2/LDH [4] [ratio] | LDH (OD) [5] [OD] | ETAG (OD) [6] [OD]
1 | DAGIGWVGSMWFPPGCIGACAAAGAPVPYPDPLEPRP (not shown: phage gene III coat protein (pCANTAB5E)) [DGI-2-20R-4-E82] | 3.7 | 3.9 | 19.6 |  |  |  | 
2 | RFWSVSYQGGRVMCREWGYCLPIAAAGAPVPYPDPLEPRP (not shown: phage gene III coat protein (pCANTAB5E)) [DGI-2-40F-3-C92] | 2.6 | 2.1 | 9.8 |  |  |  | 
3 | TANGHRYGGCGLWCKWMSGMAAAGAPVPYPDPLEPRP (not shown: phage gene III coat protein (pCANTAB5E)) [DGI-2-20R-4-E2] | 2.5 | 2.7 | 18.2 |  |  |  | 
4 | MSSTAWTDRILQRGIGLGPVAAAGAPVPYPDPLEPRP [DGI-2-20R-4-F1212] |  |  |  | 4 | 3.3 | 1.2 | 9.8
5 | YTPASILTGFQRGYEGAGNGAAAGAPVPYPDPLEPRP [DGI-2-20R-4-G7] |  |  |  | 4.7 | 3.9 | 1.2 | 11.6
6 | SLSLYWDAQVGCEVFWGYCVAAAGAPVPYPDPLEPRP (not shown: phage gene III coat protein (pCANTAB5E)) [DGI-2-20R-3-C10] | 2.1 | 2.2 | 14.7 |  |  |  | 
7 | DGI-2-40F-3-B122 (not shown: phage gene III coat protein (pCANTAB5E)) peptide: HSGNRQSGSRRTHLLNIFCSSDTFVFPGWSAYLSRVCPGDAAAGAPVPYPDPLEPRP | 2.2 | 1.7 | 11 |  |  |  | 
8 | DGI-2-40F-3-D12 (not shown: phage gene III coat protein (pCANTAB5E)) peptide: QGSAHVVRPPGVYDVPWKVGMFFHPQNWPNSWGRAYFRSGAAAGAPVPYPDPLEPRP | 2.5 | 2.3 | 7.3 |  |  |  | 
9 | LTPYSLARSWLSGRPSTGATAAAGAPVPYPDPLEPRP (not shown: phage gene III coat protein (pCANTAB5E)) [DGI-2-20F-3-C12] | 3.1 | 3.2 | 15.1 |  |  |  | 
10 | DGI-2-40F-3-B116 (not shown: phage gene III coat protein (pCANTAB5E)) peptide: GVVRAQQGLRYELQGDRYRLRRTQWLTVTYCSPSWAFAGCAAAGAPVPYPDPLEPRP | 2 | 1.7 | 6.5 |  |  |  | 
11 | ACSVGTALVFPQRWWYLGRSAAAGAPVPYPDPLEPRP (not shown: phage gene III coat protein (pCANTAB5E)) [DGL-2-20R-3-D6] | 2.1 | 2.2 | 12.9 |  |  |  | 
12 | GLRACDTYLGFCVGARRIDDAAAGAPVPYPDPLEPRP (not shown: phage gene III coat protein (pCANTAB5E)) [DGI-2-20F-3-B102] | 2.5 | 2.4 | 18 |  |  |  | 
13 | MGSLGPFGNINSLASGIGSVRNRPLLPLHGSPAAAGAPVPYPDPLEPRP (not shown: phage gene III coat protein (pCANTAB5E)) [DGI-2-40F-3-D72] | 2.8 | 3.1 | 14 |  |  |  | 
14 | LSHPMSPLRAASQMALTQGVAAAGAPVPYPDPLEPRP (not shown: phage gene III coat protein (pCANTAB5E)) [DGI-2-20R-4-H7] | 2.6 | 3.1 | 14.1 |  |  |  | 
15 | DGI-2-40F-3-D6 (not shown: phage gene III coat protein (pCANTAB5E)) peptide: GLEPVPFQTDKRIAMGWTREWLVNGYGAAHRRDARMQSGHAAAGAPVPYPDPLEPRP | 2.6 | 2.5 | 11.4 |  |  |  | 
16 | DGI-2-40F-4-F12 (not shown: phage gene III coat protein (pCANTAB5E)) peptide: GLYRRAGDASVGFSRWGRFDCQVYFSVECLLGSSWGGYSAAAGAPVPYPDPLEPRP | 2.5 | 2.2 | 8.7 |  |  |  | 
17 | DGI-2-40F-3-C6 (not shown: phage gene III coat protein (pCANTAB5E)) peptide: QMFSKGNWLAHPEGGVALGLSRESQLFRSCREFGYCMGPMAAAGAPVPYPDPLEPRP | 2.8 | 2.3 | 10.1 |  |  |  | 

Row | Binder | DGI-2/LDH (OD) [1] [ratio] | DGI-2 (OD) [2] [OD] | ETAG (OD) [3] [OD] | DGI-2 (OD) [4] [OD] | DGI-2/LDH [4] [ratio] | LDH (OD) [5] [OD] | ETAG (OD) [6] [OD]
18 | SWRLWVSGELQGDRRKGLRGAAAGAPVPYPDPLEPRP (not shown: phage gene III coat protein (pCANTAB5E)) [DGI-2-20R-3-B7] | 3 | 3.1 | 11.7 |  |  |  | 
19 | GSVLERGCLEFSGFCFSLGHAAAGAPVPYPDPLEPRP (not shown: phage gene III coat protein (pCANTAB5E)) [DGI-2-20F-3-C1] | 3.4 | 3.4 | 14 |  |  |  | 
20 | DGI-2-40F-4-E62 (peptide) peptide: TCWHRGLNVVRYSVNFGVRDARLTTQGMAWFPPGCGQGCVAAAGAPVPYPDPLEPRP |  |  |  | 4.6 | 4.5 | 1 | 14.8
21 | LSLLSVVVRSMGASAPQRQVAAAGAPVPYPDPLEPRP (not shown: phage gene III coat protein (pCANTAB5E)) [DGI-2-20F-3-A7] | 2.4 | 2.1 | 7 |  |  |  | 
22 | LQIVRPAGWKMPGQVGYYIGAAAGAPVPYPDPLEPRP (not shown: phage gene III coat protein (pCANTAB5E)) [DGI-2-20R-3-A9] | 3.4 | 3.4 | 14.3 |  |  |  | 
23 | RNWLDKDCVWMGDCGARAGEAAAGAPVPYPDPLEPRP (not shown: phage gene III coat protein (pCANTAB5E)) [DGI-2-20F-4-E3] | 4.1 | 3.8 | 16.9 |  |  |  | 
24 | TSCQVMFLAGQHLLSRVPRLAAAGAPVPYPDPLEPRP (not shown: phage gene III coat protein (pCANTAB5E)) [DGL-2-20R-3-B6] | 2.7 | 2.8 | 11.7 |  |  |  | 
25 | GNKCFPPHDLFWDPCDQLQSAAAGAPVPYPDPLEPRP (not shown: phage gene III coat protein (pCANTAB5E)) [DGI-2-20R-4-F6] | 2.3 | 2.3 | 13.2 |  |  |  | 
26 | DGI-2-40F-3-D7 (not shown: phage gene III coat protein (pCANTAB5E)) peptide: ALRSLGSGGFGWQAGRASPQGMTHFPYFGWSGMPTARVRPAAAGAPVPYPDPLEPRP | 2.6 | 2.6 | 10.3 |  |  |  | 
27 | MSTLQGPGHLFQMLRRASLGAAAGAPVPYPDPLEPRP (not shown: phage gene III coat protein (pCANTAB5E)) [DGI-2-20R-4-H12] | 2.8 | 3.7 | 10.9 |  |  |  | 
28 | TPDRCLIYSSIQCLLEYSARRGSADAAAGAPVPYPDPLEPRP (not shown: phage gene III coat protein (pCANTAB5E)) [DGI-2-20C-3-C65] | 1.8 | 1.8 | 7.4 |  |  |  | 
29 | LHFGSVMGWRPPGSLWSRPFGQVHPRSWSGSAAAGAPVPYPDPLEPRP (not shown: phage gene III coat protein (pCANTAB5E)) [DGI-2-40F-3-D11] | 2.9 | 3.8 | 10.5 |  |  |  | 
30 | DGI-2-40F-4-F6 (not shown: phage gene III coat protein (pCANTAB5E)) peptide: SYRNFAMQSSLQVRRGSVVEDGTCWWEGVRCYSGAAAGAPVPYPDPLEPRP | 3.2 | 3.2 | 13.5 |  |  |  | 
31 | REFFNQASRGAWGYMFREWVEGAAAGAPVPYPDPLEPRP [DGI-2-40F-3-A1] |  |  |  | 4.5 | 5.2 | 0.9 | 9.9
32 | DGI-2-40F-3-B11 (not shown: phage gene III coat protein (pCANTAB5E)) peptide: LAPMFLQNQVRTWAASRRPLPAGPSNARCETGSLSPWVPCAAAGAPVPYPDPLEPRP | 2 | 1.8 | 7.9 |  |  |  | 
33 | RWSICRGLQYSIPGCAVEDLSDVMAAAAGAPVPYPDPLEPRP (not shown: phage gene III coat protein (pCANTAB5E)) [DGI-2-20C-4-H316] | 3.9 | 3.8 | 7.2 |  |  |  | 
34 | SRPGWCSRGTAWGFPGCSSSAAAGAPVPYPDPLEPRP [DGI-2-20R-3-C4] |  |  |  | 4.5 | 4.2 | 1.1 | 19.1
